Where two headings read alike, the source gives them in different places. One block for each binder: values may come before it.
How the values were obtained:
[1] = target: T1, human IL-11 (human, UniProt P20809 22-199); assay: SPR, antibody captured, IL-11 as analyte
T1 construct: bought from Invigate; also called hIL-11; hIL11
T1 sequence: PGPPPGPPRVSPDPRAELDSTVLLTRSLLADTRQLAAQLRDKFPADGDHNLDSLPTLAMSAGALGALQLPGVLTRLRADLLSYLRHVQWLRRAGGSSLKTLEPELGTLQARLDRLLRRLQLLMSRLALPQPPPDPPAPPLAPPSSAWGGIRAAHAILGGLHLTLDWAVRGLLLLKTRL
Protocol: (§1) Antibodies were captured via anti-mouse Fc IgGs (“Mouse antibody capture kit, Order No. BR100383, Cytiva) covalently amine coupled to a Series S CM5 sensor chip (Cytiva). The amine coupling was carried out according to the manufacturer's instructions using 1-ethyl-3-(3-dimethylaminopropyl) carbodiimide hydrochloride (EDC), N-hydroxysuccinimide (NHS) and ethanolamine HCl, pH 8.5 (“Amine Coupling Kit” BR-1000-50, Cytiva.). Human IL-11 (Invigate, e.g., lot #C121021-19), and murine IL-11 (Invigate, e.g., lot #C210819-09) were used as analytes. […] Based on that experiment an IL-11 concentration range was chosen to optimally determine kinetics and affinity of anti-IL-11 antibodies in multicycle kinetics mode. The sensor surface was regenerated with glycine pH 1.7 after each antigen injection. Obtained sensorgrams were double referenced (subtraction of reference flow cell signal and buffer injection) and were fitted to a 1:1 Langmuir binding model to derive kinetic data using the Biacore T200 Evaluation software or the Biacore Insight software.
(§2) For the 2nd round of germlining, single reversions were then combined on DNA level, expressed and purified as described in Example 15, and tested by SPR as described in Example 16.

[2] = target: T2, murine IL-11 (mouse, UniProt P47873 22-199); assay: SPR, antibody captured, IL-11 as analyte
T2 construct: bought from Invigate; also called mIL-11; mIL11
T2 sequence: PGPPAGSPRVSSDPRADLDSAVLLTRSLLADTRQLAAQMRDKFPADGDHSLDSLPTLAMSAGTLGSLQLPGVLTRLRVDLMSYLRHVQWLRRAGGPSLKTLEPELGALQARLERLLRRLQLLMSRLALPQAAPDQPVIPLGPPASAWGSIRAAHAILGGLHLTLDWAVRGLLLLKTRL
Protocol: as §1, §2

[3] = target: T1, human IL-11; assay: cell-based or functional assay
[4] = target: T2, murine IL-11; assay: cell-based or functional assay
[5] = target: T3, human IL-11 (human, UniProt P20809 22-199); assay: cell-based or functional assay; remark: listed apart in the source
T3 sequence: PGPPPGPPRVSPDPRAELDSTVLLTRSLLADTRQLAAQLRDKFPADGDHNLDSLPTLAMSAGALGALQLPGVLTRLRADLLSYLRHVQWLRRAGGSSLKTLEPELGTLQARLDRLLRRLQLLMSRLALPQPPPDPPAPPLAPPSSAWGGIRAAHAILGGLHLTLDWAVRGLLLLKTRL

[6] = target: T4, murine IL-11 (mouse, UniProt P47873 22-199); assay: cell-based or functional assay; remark: listed apart in the source
T4 sequence: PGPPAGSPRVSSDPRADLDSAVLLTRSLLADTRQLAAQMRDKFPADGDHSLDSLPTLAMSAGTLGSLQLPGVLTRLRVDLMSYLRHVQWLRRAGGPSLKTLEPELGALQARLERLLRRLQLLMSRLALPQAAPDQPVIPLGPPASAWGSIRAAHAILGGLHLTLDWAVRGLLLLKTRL

[7] = target: T3, human IL-11; assay: SPR, antibody captured, IL-11 as analyte
[8] = target: T5, rat IL-11 (rat, UniProt Q99MF5 22-199); assay: SPR, antibody captured, IL-11 as analyte
T5 construct: Invigate, e.g. lot #C301019-19; also called rIL11
T5 sequence: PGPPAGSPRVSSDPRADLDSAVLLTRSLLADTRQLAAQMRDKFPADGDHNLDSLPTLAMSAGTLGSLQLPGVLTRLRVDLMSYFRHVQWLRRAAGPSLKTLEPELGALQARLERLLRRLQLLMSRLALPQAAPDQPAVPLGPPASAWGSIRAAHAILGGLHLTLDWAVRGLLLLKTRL

[9] = target: T4, murine IL-11; assay: SPR, antibody captured, IL-11 as analyte
[10] = target: T6, cynomolgus IL-11 (cynomolgus, UniProt P20808 22-199); assay: SPR, antibody captured, IL-11 as analyte
T6 construct: Invigate, lot #C290621-19; also called cIL11; cynoL-11
T6 sequence: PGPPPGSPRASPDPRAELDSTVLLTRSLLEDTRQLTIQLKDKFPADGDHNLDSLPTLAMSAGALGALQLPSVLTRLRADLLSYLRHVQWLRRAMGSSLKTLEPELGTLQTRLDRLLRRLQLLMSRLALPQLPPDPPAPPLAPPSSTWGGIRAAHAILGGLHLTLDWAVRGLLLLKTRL

B1: TPP-21150 (antibody, V domains shown)
VH: EVQLLESGGGLVQPGGSLRLSCAASGFTFSSYGMHWVRQAPGKGLEWVSVISYDGSYKYYADSVKGRFTISRDNSKNTLYLQMNSLRAEDTAVYYCAAGVPDYWGQGTLVTVSS
VL: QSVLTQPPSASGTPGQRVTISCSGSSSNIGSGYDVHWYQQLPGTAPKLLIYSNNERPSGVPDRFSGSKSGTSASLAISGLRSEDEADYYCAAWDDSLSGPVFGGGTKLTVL
Kd [1]: 5.6 nM
Kd [2]: 1.4 nM
Efficacy (%), RGA [3]: 46.9%
IC50, RGA [3]: 12 nM
Efficacy (%), RGA [4]: 92.2%
IC50, RGA [4]: 1.6 nM

B2: TPP-21153 (antibody, V domains shown)
VH: EVQLLESGGGLVQPGGSLRLSCAASGFTFSSYGMHWVRQAPGKGLEWVSVISYDGSYKYYADSVKGRFTISRDNSKNTLYLQMNSLRAEDTAVYYCAAGVPDYWGQGTLVTVSS
VL: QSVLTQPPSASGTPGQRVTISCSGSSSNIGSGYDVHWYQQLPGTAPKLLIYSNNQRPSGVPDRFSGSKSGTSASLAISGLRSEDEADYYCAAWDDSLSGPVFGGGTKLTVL
Kd [1]: 10 nM
Kd [2]: 3.6 nM
Efficacy (%), RGA [3]: 34%
IC50, RGA [3]: 26 nM
Efficacy (%), RGA [4]: 81.2%
IC50, RGA [4]: 3.4 nM

B3: TPP-21157 (antibody, V domains shown)
VH: EVQLLESGGGLVQPGGSLRLSCAASGFTFSSYGMHWVRQAPGKGLEWVSVISYDGSYKYYADSVKGRFTISRDNSKNTLYLQMNSLRAEDTAVYYCAAGVPDYWGQGTLVTVSS
VL: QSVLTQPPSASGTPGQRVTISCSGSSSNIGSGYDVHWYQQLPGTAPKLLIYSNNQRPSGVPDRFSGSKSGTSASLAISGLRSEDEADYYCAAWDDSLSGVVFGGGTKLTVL
Kd [1]: 13 nM
Kd [2]: 73 nM
Efficacy (%), RGA [3]: 13.4%
Efficacy (%), RGA [4]: 59.2%
IC50, RGA [4]: 44 nM

B4: TPP-21158 (antibody, V domains shown)
VH: EVQLLESGGGLVQPGGSLRLSCAASGFTFSSYGMHWVRQAPGKGLEWVAVISYDGSYKYYADSVKGRFTISRDNSKNTLYLQMNSLRAEDTAVYYCARGVPDYWGQGTLVTVSS
VL: QSVLTQPPSASGTPGQRVTISCTGSSSNIGAGYDVHWYQQLPGTAPKLLIYSNNERPSGVPDRFSGSKSGTSASLAISGLRSEDEADYYCAAWDDSLNGPVFGGGTKLTVL
Kd [1]: 47 nM
Kd [2]: 13 nM
Efficacy (%), RGA [3]: 19.4%
Efficacy (%), RGA [4]: 73.2%
IC50, RGA [4]: 2.4 nM

B5: TPP-27154 (antibody, V domains shown)
VH: EVQLLESGGGLVQPGGSLRLSCAASGFTFSSYGMHWVRQAPGKGLEWVSVISYDGSYKYYADSVKGRFTISRDNSKNTLYLQMNSLRAEDTAVYYCAAGVPDYWGQGTLVTVSS
VL: QSVLTQPPSASGTPGQRVTISCTGSSSNIGAGYDVHWYQQLPGTAPKLLIYSNNERPSGVPDRFSGSKSGTSASLAISGLRSEDEADYYCAAWDDSLSGPVFGGGTKLTVL
Kd [1]: 5.4 nM
Kd [2]: 1.3 nM
Efficacy (%), RGA [3]: 58.7%
IC50, RGA [3]: 24 nM
Efficacy (%), RGA [4]: 92.9%
IC50, RGA [4]: 1.8 nM

B6: TPP-27155 (antibody, V domains shown)
VH: EVQLLESGGGLVQPGGSLRLSCAASGFTFSSYGMHWVRQAPGKGLEWVSVISYDGSYKYYADSVKGRFTISRDNSKNTLYLQMNSLRAEDTAVYYCAAGVPDYWGQGTLVTVSS
VL: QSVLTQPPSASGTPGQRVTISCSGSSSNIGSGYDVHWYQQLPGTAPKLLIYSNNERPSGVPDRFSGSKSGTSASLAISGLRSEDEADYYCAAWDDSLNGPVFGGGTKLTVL
Kd [1]: 5.8 nM
Kd [2]: 0.65 nM
Efficacy (%), RGA [3]: 56.5%
IC50, RGA [3]: 20 nM
Efficacy (%), RGA [4]: 94.3%
IC50, RGA [4]: 1.1 nM

The next lines start with the values.

Kd [1]: 6.6 nM
Kd [2]: 0.45 nM
Efficacy (%), RGA [3]: 50.4%
IC50, RGA [3]: 15 nM
Efficacy (%), RGA [4]: 90.6%
IC50, RGA [4]: 1.2 nM
B7: TPP-27156 (antibody, V domains shown)
VH: EVQLLESGGGLVQPGGSLRLSCAASGFTFSSYGMHWVRQAPGKGLEWVAVISYDGSYKYYADSVKGRFTISRDNSKNTLYLQMNSLRAEDTAVYYCAAGVPDYWGQGTLVTVSS
VL: QSVLTQPPSASGTPGQRVTISCTGSSSNIGAGYDVHWYQQLPGTAPKLLIYSNNERPSGVPDRFSGSKSGTSASLAISGLRSEDEADYYCAAWDDSLNGPVFGGGTKLTVL

RGA Efficacy (%) [5]: 70.2%
RGA IC50 [5]: 0.73 nM
RGA Efficacy (%) [6]: 90%
Kd [7]: 0.56 nM
Kd [8]: 0.53 nM
Kd [9]: 0.93 nM
Kd [10]: 0.57 nM
B8: TPP-29399 (antibody, human IgG1, V domains shown)
VH: EVQLLESGGGLVQPGGSLRLSCAASGFTFSSYGMHWVRQAPGKGLEWVAVISYDGSYKYYADSVKGRFTISRDNSKNTLYLQMNSLRAEDTAVYYCAAGVPDYWGQGTLVTVSS
VL: QSVLTQPPSASGTPGQRVTISCSGSSSNIGSDYDVHWYQQLPGTAPKLLIYSNNERPSGVPDRFSGSKSGTSASLAISGLRSEDEADYYCAAWDSSLSGPVFGGGTKLTVL

RGA Efficacy (%) [5]: 59.6%
RGA IC50 [5]: 0.46 nM
RGA Efficacy (%) [6]: 87.3%
Kd [7]: 0.5 nM
Kd [8]: 0.75 nM
Kd [9]: 0.96 nM
Kd [10]: 0.35 nM
B9: TPP-29400 (antibody, human IgG1, V domains shown)
VH: EVQLLESGGGLVQPGGSLRLSCAASGFTFSSYGGHWVRQAPGKGLEWVALISYDGSYKYYADSVKGRFTISRDNSKNTLYLQMNSLRAEDTAVYYCAAGVPDYWGQGTLVTVSS
VL: QSVLTQPPSASGTPGQRVTISCSGSSSNIGSDYDVHWYQQLPGTAPKLLIYSNNERPSGVPDRFSGSKSGTSASLAISGLRSEDEADYYCAAWDFSLSGPVFGGGTKLTVL

RGA Efficacy (%) [5]: 83.3%
RGA IC50 [5]: 1.3 nM
RGA Efficacy (%) [6]: 96.9%
RGA IC50 [6]: 0.15 nM
Kd [7]: 0.69 nM
Kd [8]: 0.058 nM
Kd [9]: 0.11 nM
Kd [10]: 0.23 nM
B10: TPP-29401 (antibody, human IgG1, V domains shown)
VH: EVQLLESGGGLVQPGGSLRLSCAASGFTFSSYGGHWVRQAPGKGLEWVAVISYDGSYKYYADSVKGRFTISRDNSKNTLYLQMNSLRAEDTAVYYCAAGVPDYWGQGTLVTVSS
VL: QSVLTQPPSASGTPGQRVTISCSGSSSNIGSYYDVHWYQQLPGTAPKLLIYSNEERPSGVPDRFSGSKSGTSASLAISGLRSEDEADYYCAAWDDSLSGPVFGGGTKLTVL

RGA Efficacy (%) [5]: 80.7%
RGA IC50 [5]: 0.53 nM
RGA Efficacy (%) [6]: 95.5%
RGA IC50 [6]: 0.19 nM
Kd [7]: 0.19 nM
Kd [8]: 0.018 nM
Kd [9]: 0.045 nM
Kd [10]: 0.32 nM
B11: TPP-29402 (antibody, human IgG1, V domains shown)
VH: EVQLLESGGGLVQPGGSLRLSCAASGFTFSSYGGHWVRQAPGKGLEWVALISYDGSYKYYADSVKGRFTISRDNSKNTLYLQMNSLRAEDTAVYYCAAGVPDYWGQGTLVTVSS
VL: QSVLTQPPSASGTPGQRVTISCSGSSSNIGSGLDVHWYQQLPGTAPKLLIYSNEERPSGVPDRFSGSKSGTSASLAISGLRSEDEADYYCAAWDSSLYGPVFGGGTKLTVL

RGA Efficacy (%) [5]: 82.4%
RGA IC50 [5]: 1.7 nM
RGA Efficacy (%) [6]: 94.3%
RGA IC50 [6]: 0.27 nM
Kd [7]: 0.77 nM
Kd [8]: 0.11 nM
Kd [9]: 0.18 nM
Kd [10]: 0.26 nM
B12: TPP-29403 (antibody, human IgG1, V domains shown)
VH: EVQLLESGGGLVQPGGSLRLSCAASGFTFSSYGGHWVRQAPGKGLEWVALISYDGSYKYYADSVKGRFTISRDNSKNTLYLQMNSLRAEDTAVYYCAAGVPDYWGQGTLVTVSS
VL: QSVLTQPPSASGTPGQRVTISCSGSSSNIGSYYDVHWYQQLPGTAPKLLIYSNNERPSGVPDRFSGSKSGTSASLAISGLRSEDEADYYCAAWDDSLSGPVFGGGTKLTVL

RGA Efficacy (%) [5]: 71.8%
RGA IC50 [5]: 0.72 nM
RGA Efficacy (%) [6]: 91.8%
RGA IC50 [6]: 0.19 nM
Kd [7]: 0.2 nM
Kd [8]: 0.067 nM
Kd [9]: 0.091 nM
Kd [10]: 0.14 nM
B13: TPP-29404 (antibody, human IgG1, V domains shown)
VH: EVQLLESGGGLVQPGGSLRLSCAASGFTFSSYGGHWVRQAPGKGLEWVALISYDGSYKYYADSVKGRFTISRDNSKNTLYLQMNSLRAEDTAVYYCAAGVPDYWGQGTLVTVSS
VL: QSVLTQPPSASGTPGQRVTISCSGSSSNIGSYYDVHWYQQLPGTAPKLLIYSNNERPSGVPDRFSGSKSGTSASLAISGLRSEDEADYYCAAWDSSLSGPVFGGGTKLTVL

— patent publication US20240317847A1 (Bayer, published 2024)
